# Experiment: soluble on expression in E. coli; label from the status in PepcDB or PDB records
row,Sequence,soluble on expression in E. coli
1,MIDLSKTVFYTSIDIGSRYIKGLVLGKRDQEWEALAFSSVKSRGLDEGEIKDAIAFKESVNTLLKELEEQLQKSLRSDFVISFSSVSFEREDTVIERDFGEEKRSITLDILSEMQSEALEKLKENGKTPLHIFSKRYLLDDERIVFNPLDMKASKIAIEYTSIVVPLKVYEMFYNFLQDTVKSPFQLKSSLVSTAEGVLTTPEKDRGVVVVNLGYNFTGLIAYKNGVPIKISYVPVGMKHVIKDVSAVLDTSFEESERLIITHGNAVYNDLKEEEIQYRGLDGNTIKTTTAKKLSVIIHARLREIMSKSKKFFREVEAKIVEEGEIGIPGGVVLTGGGAKIPRINELATEVFKSPVRTGCYANSDRPSIINADEVANDPSFAAAFGNVFAVSENPYEETPVKSENPLKKIFRLFKELME,soluble
2,MIDTTVFQNKTAVYYTLGCKLNFSETSTIGKILREAGVRTARKGEKADICVVNTCSVTEMADKKCRQAIHRLVKQHPGAFVVVTGCYAQLKPGDVAKIKGVDVVLGAEQKGDLLQYLGDLHKHEEGEAFTTTTKDIRSFSPSCSRGDRTRFFLKVQDGCDYFCSYCTIPFARGRSRNGTVASMVEQARQAAAEGGKEIVLTGVNIGDFGKTTGETFFDLVKALDQVEGIERYRISSIEPNLLTDEIIEFVSRSRRFMPHFHIPLQSGCDEVLKLMRRRYDTALFASKVKKIKEVMPDAFIGVDVIVGTRGETEEYFEQAYQFISGLDVTQLHVFSYSERPGTQALKIDYVVSPEEKHQRSQRLLTLSDEKTRAFYTRHIGQTMQVLMEKSKAGTPMHGFTANYIRVEVENDESLDNQMINVRLGEFNEDMTALKGTILMNYEVLEHHHHHH,soluble
3,MIDVFDGQVTTRIALQLLALLAQRPGELRHAKWSEFDEADKVWAIPAGKMKMRRDHFVPLADQAITLLNELRPLTGESEYLFPSLRSWHRPMSENTMNAALRRMGYSGDEMTAHGFRATFSTLANESGLWNPDAIERALAHEERNELEHHHHHH,not soluble
4,MIDVMQIQEILPHRYPFLLVDKITELKVKEVVLGYKNISISDHVFMGHFPGHPIYPGVLILEGMAQTGGVLAFESMEDKVDPKSKVVYFTGIDGAKFRNPVRPGDRLDYEMSVVKNRGNMWIFKGQAFVDGNLVAEAELKAMIVDK,soluble
5,MIEIESLSRKWKNFSLDNLSLKVESGEYFVILGPTGAGKTLFLELIAGFHVPDSGRILLDGKDVTDLSPEKHDIAFVYQNYSLFPHMNVKKNLEFGMRMKKIKDPKRVLDTARDLKIEHLLDRNPLTLSGGEQQRVALARALVTNPKILLLDEPLSALDPRTQENAREMLSVLHKKNKLTVLHITHDQTEARIMADRIAVVMDGKLIQVGKPEEIFEKPVEGRVASFVGFENVLKGRVISAEQGLLRIRVGEVVIDAAGDMEVGDQVYAFLRPENIALSKSSTQSSIRNSLQGRVTEAWVLGALVRVKVDCGVPLNVLITRRSAEEMELSPGVQIYARFKASSVHVLR,soluble
6,MIELVIVSRLLEYPDAALWQHQQEMFEAIAASKNLPKEDAHALGIFLRDLTTMDPLDAQAQYSELFDRGRATSLLLFEHVHGESRDRGQAMVDLLAQYEQHGLQLNSRELPDHLPLYLEYLAQLPQSEAVEGLKDIAPILALLSARLQQRESRYAVLFDLLLKLANTAIDSDKVAEKIADEARDDTPQALDAVWEEEQVKFFADKGCGDSAITAHQRRFAGAVAPQYLNITTGGQH,not soluble
7,MIEQIGADSKSAENKQERKLYIETYGCQMNVADSEVVASVMQMDGYNLTDNVDEADTILVNTCSVRDNAEQKVLNRLAYYHSLRKKRRASSRLVIGVLGCMAERVKEELIREHHVDVVAGPDSYLDLPNLVGAAEQGEKAINVELSTQETYKDVMPLKMGGVHINGFVSIMRGCNNFCSYCIVPYTRGRERSREIESILNEVRDLKAKNFREVTLLGQNVNSYRYEQNGRIIRFPDLLAAVAEAVPDMRIRFTSPHPKDMDDEAIAVMARYRNICNHIHLPAQSGSDKMLRVMKRGYTRRWYLDRVAAIRRAIPDCAISSDLFCGFHSETEEDFEATLSLMEEVRYDSAFMFKYSERPGTYAARHLADDVPEEVKLSRLDRMIALQNRLSEESNKRDIGKTFEVLIEGFSKRSREQLFGRTQQNKVVIFDKNGHRVGQYIYVRIKDASSATLFGEVVETPTSELEHHHHHH,soluble
8,MIERLFRLIKPGTRQQMVCFHHAGGSAEYFLPWKTDLPPDTALYAIQLPGHGGRINESLLHNLHQMADVIAQSYVYLPVRDTFFFGHSMGAALAFEVALRLQKAGRGITTLYVSGRLPPHKNTNTDFYRQSDVSILNKITQLGGSTLDYQQPELKDLLLPIFRADFTAIETYQRQCTELLNCSVMACVGEQDTEVSVRQMSEWCQVTKGAFRLQVFPGGHFYLNHAQKRLLAFINQSVAAQQSSKECKEYHDEI,not soluble
9,MIETTAALAEACTELAKSEFITIDTEFLRETTFWPELCLVQMASPTLEVLVDPLAKGIDLTPMFELMANPNVVKVFHAARQDIEIIYHLGGLIPHPIFDTQVAAMVCGFGDSISYDQLVQKIKNVQIDKSSRFTDWSRRPLTEKQLDYALADVTHLRDVYLSLKAQLEREGRSLWLTEEMNILESRDTYDMHPDDAWLRLKSRLRKPTELAILKFVAAWREREARSRNVPRSRVLKDDGIFEIAQQQPKDAEALSRLRTIPKGWERSASGTAIIETVNAALALPKEEMPKAPRHSHAPEGSGAAVELLKVLLKLTADKHGVAAKVIANSDDLDKIASEGENATVAALTGWRRELFGDVALKLINGEVALRFAGKKVEAVEVEAAASES,not soluble
10,MIEVGDLKKGMFIIYDGEIYRVLEASKHFMGRGSGLIRTKLKNVKTGFVREVNFPSGEKVQEAELSFRKAQYLYRDGDHYYFMTLDDYEQYALSEEEIGDAKYYLVENMEVDLVFHEGTPIGIELPTTVELTVVETEPSFKGDTVSGGGKPAVLETGLKITVPYFIEVGDKIKVDTRTGEYVGRA,soluble
11,MIFEDKFIITTADEIPGLQLYSLGIASTISDNVDEIVENLRKQVKAKGGMGLIAFRITCADGKFLGYGTIVKADEAQFTMA,soluble
12,MIFRQIHEEGLAQMSYLLGCAATGEALVVDPRRDVDVYLELAQSLGLRITAIAETHIHADYLSGARELARATGATLYLSDEGDENWKYKGLEGFPHVLLKDGDEFKVGNIRVRAVHTPGHTPEHLSFLVADGAVTDEPLLFLTGDFVFVGDVGRPDLLEEAAGIKGTAEPGARRMFRSLKEKFLTLPDHVQVWPGHGAGSACGKALGALPATTVGYERRHAWWAEYLERDDEEGFVKALLQGQPEAPTYFKEMKRLNRDGMAILGGLPHPGRLTPAQFERWLREGAILVDTRDKFAFAGGHIPGSINIPAGKNFSTWAGWLLPYDRPLVLLARPEEVEALTRALVRIGLDEVVGYIPGLEGYAQGELETVPQVTAKEAKELWEKGKAFVLDVRGRDEYLAGHIPGAQNIHAGRVLAHLDRLPKDRPLIVHCVGGDRSSTAISALLAHGFRNALNLTGGIKAWREAGFPVVQGEELVQA,soluble
13,MIGAVNSVEAVITSIQGLSGSPEDLSALHDLLRGAQDSLRAEPGVNFSTLDQLDASKHSLGYLYFLEVLTCGPVSKEKAAYEIPIIARFINSCDAGQIRLASYKFVSLCKILKDHVIALGDPLRGVGPLLNAVQKLQVSSKRLTALHPDVLQLCLQAKSYKSGFSILSDDIVEIDQPRDFFLYSYYGGMICIGLKRFQKALELLYNVVTAPMHQVNAIALEAYKKYILVSLIHNGQFTNTLPKCASTAAQRSFKNYTGPYIELGNCYNDGKIGELEALVVARNAEFEEDKNLGLVKQAVSSLYKRNILRLTQKYLTLSLQDIANMVQLGNAKEAEMHVLQMIQDGQIHALINQKDGMVRFLEDPEQYKSSEMIEIMDSVIQRTIGLSKNLLAMDESLSCDPLYLGKVGRERQRYDFGDDFDTVPQKFSM,soluble
14,MIGGLFIYNHKGEVLISRVYRDDIGRNAVDAFRVNVIHARQQVRSPVTNIARTSFFHVKRSNIWLAAVTKQNVNAAMVFEFLYKMCDVMAAYFGKISEENIKNNFVLIYELLDEILDFGYPQNSETGALKTFITQQGIKSQHQTKEEQSQITSQVTGQIGWRREGIKYRRNELFLDVLESVNLLMSPQGQVLSAHVSGRVVMKSYLSGMPECKFGMNDKIVIEKQGKGTADETSKSGKQSIAIDDCTFHQCVRLSKFDSERSISFIPPDGEFELMRYRTTKDIILPFRVIPLVREVGRTKLEVKVVIKSNFKPSLLAQKIEVRIPTPLNTSGVQVICMKGKAKYKASENAIVWKIKRMAGMKESQISAEIELLPTNDKKKWARPPISMNFEVPFAPSGLKVRYLKVFEPKLNYSDHDVIKWVRYIGRSGIYETRC,soluble
15,MIHLVDYALLKPYLTVDEAVAGARKAEELGVAAYCVNPIYAPVVRPLLRKVKLCVVADFPFGALPTASRIALVSRLAEVADEIDVVAPIGLVKSRRWAEVRRDLISVVGAAGGRVVKVITEEPYLRDEERYTLYDIIAEAGAHFIKSSTGFAEEAYAARQGNPVHSTPERAAAIARYIKEKGYRLGVKMAGGIRTREQAKAIVDAIGWGEDPARVRLGTSTPEALL,soluble
16,MIIATAGHVDHGKTTLLQAITGVNADRLPEEKKRGMTIDLGYAYWPQPDGRVLGFIDVPGHEKFLSNMLAGVGGIDHALLVVACDDGVMAQTREHLQILQLTGNLQLTVALTKADRVDEARIGEVREEVLAALDNYGFADTVLFVTAANEGRGIAELRAHLQQLPARSHAAQHRFRLAIDRAFTVKGAGLVVTGTALSGEVNVGDTLWLTGVNTPMRVRSLHAQNQPTDHAYAGQRIALNIAGDAEKEQLNRGDWLLSDAPVGEAFSRVIVSLALHAPLSQWQPLHIHHAASHVTGRVSLLEGGLAELIFDTPLWLADNDRLVLRDISARATLAGARVVTLKAPRRGKRKPDYLHWLSTLAAAQDDSAALAIHLERGAVNLPDFGWARQLNPLGMRQLIEQHGFIQAGDNLLSAPVAARWQRKILDTLATYHEQHRDEPGPGRERLRRMALPMEDEALVLMLIERMRDDGLIHSHHGWLHLPDHKAGFSDEQQAVWQKVEPLFGDEPWWVRDLAKETGTEEQLMRLVLRQAAQQGIITAIVKDRYYRNDRIVAFANMIRELDQERGSTCAADFRDRLNVGRKLAIQILEYFDRIGFTRRRGNDHLLRDALLFPQKE,not soluble

# Reference: the DeepSol protein solubility set
